From paper PMC3873694

Key:
[1] = target: fetal muscle nicotinic acetylcholine receptor (α1β1γδ), mouse (mouse) (UniProt P04756)
[2] = target: adult muscle nicotinic acetylcholine receptor (α1β1εδ), mouse (mouse) (UniProt P04756)
[3] = target: fetal muscle nicotinic acetylcholine receptor (α1β1γδ), mouse (mouse) (UniProt P04756); remark: listed apart in the source

“Fraction 4 of the tentacle venom extract (TVE) of the jellyfish Aurelia aurita” gave a percent block of ACh-elicited currents at 1.5, 3 and 4.5 μg total protein of fraction 4 (25%, 50%, 96%), voltage clamp on X. laevis oocytes [1] of 96%, an IC50 of inhibition of ACh-elicited currents, two-electrode voltage clamp on X. laevis oocytes expressing the receptor [2] of 2280 µg/mL and an IC50 of inhibition of ACh-elicited currents, two-electrode voltage clamp on X. laevis oocytes expressing the receptor [3] of 1770 µg/mL.
